According to the DeepSol protein solubility set:

Assay: soluble on expression in E. coli; label from the status in PepcDB or PDB records

| Sequence | soluble on expression in E. coli |
| --- | --- |
| MATWEEYLGAQQANDGVQFTWNMWPHSRVDSQKLVVPLTCFFTPLKERPSTEVAQPPLEYDPVLCQKASCKAILNPLCAVDYRAKIWMCPFCNNRNPFPAHYAAIAEDNRPPELYPQFTTIEYTLRKATTMPPIFVFVVDTCMTAEELKSLKECLQTALSLLPADALVGLITYGRMVQLHELNTQGISRSYVFKGTKEVTAKQIKDVMAGGGLSQRPAAGAPGAPAGAPGAPMAMGSGAAPLGQLPGSGLPGGLPRGGGPPLPGAAQGIVAPGGGAPVPHAPANKFLQPISECDESINDLIDQISIDRWPVPQGHRPLRATGAALAVAVTLLESCFPSTGARIMSFIGGACTHGPGAVVGEELKNPIRSWNSIKEDAAPYMKKAIKFYDGLAARIVKNGHAVDVYSCALDQTGLLEMKNMFNSSGGHVVMGDSFNSSLFKQTYQRSFDKDSAGNLKMGFNATMEVKVGAGLKIEGVLGCCASGNVRNANVSDQEMGIGGTCQWKFGAISPRTTIGVVFEIAAQHGSAIPQGGRGMVQFVTQYQHADGRKRIRVTTTCRTWADMATQQPNIAYGFDQEAAAVAIARLASFRASNENDTPEALRWLDRSLIRLCQKFGEYSKDDPNSFRLSDKFSLFPQFMFHLRRSQFLQVFNNSPDETAYYRHILFSENVLESTTMIQPVLFSYSFNGPPEPVLLDTSSILADRILLMDDYFHVLIYHGQTIAQWRKQNFHENPQYATFKQLLEAPVADATSILQERFPMPRYIVTEHEGSQARFLLSKVNPSLTHNNPYANEAGSAVFTDDVSLQVFMEHLKKLSSSSST | not soluble |
| MGHHHHHHGGHMSLIGFLTDWGLKSHYVGVAKAVIKRINPSAEIIDITHEVEPFNVRKASHVLYRASLDFPPSTVFLVVVDYGVGTSRKAIVMKTKNDQYFVAPDNGVLTVVAEEYGVAEIREIENRELFYKKNPSFTFHGRDIFAPVAAHLDMGLPLERVGDRLLSYEVLKMRKPVVENEKVIGEVAIVDTFGNVSTNIPFDLFLKLSVDFDDVVRVRVGRKEFKAAVAKAFGDVDTGELLVHPDSAGFLEIAVNLGDASQVLSVKEGDEIEICREGGS | soluble |
| MAREAKKDPNELTVEQKLKTLFQLQTMLSKIDEIKTLRGELPLEVQDLEDEIAGLSTRIDKIKAEVDELKSAIAGKRVEIETAKASVEKYKSQQDNVRNNREYDFLTKEIEFQSLEIELCEKRIKEFSADREEKEAEVVKNEQILSERQKDLEQKKGELDEIISETKQEEEKLRDKAKDLETKIEPRLLQSFKRIRKNSRNGLGVVYVQRDACGGCFNKIPPQRQLDIRSRKKVIVCEYCGRIMIDPELAGVQIEHKVEEAPATTTKRAIRRKTAE | not soluble |
| SLDFRDKVRNMDLQAGLYRHYKGQNYRVLGVARHSETEEALVIYQALYGEFGLWVRPLEMFTEAVEVDGEWVPRFVLVSPEADPLGLQKAPGGEDRA | soluble |
| GMELDDAYANGAYIEGAADYPPRWAASAEDFRNSLQDRARLNLSYGEGDRHKFDLFLPEGTPVGLFVFVHGGYWMAFDKSSWSHLAVGALSKGWAVAMPSYELCPEVRISEITQQISQAVTAAAKEIDGPIVLAGHSAGGHLVARMLDPEVLPEAVGARIRNVVPISPLSDLRPLLRTSMNEKFKMDADAAIAESPVEMQNRYDAKVTVWVGGAERPAFLDQAIWLVEAWDADHVIAFEKHHFNVIEPLADPESDLVAVITA | soluble |
| MTENEDLVAGLLLAAGGGRRLGGRPKALLEHRGRPLVEHVAGVLRAAGSTRVYVVLGAQAAAVRERAVLPGCILVDNPDWELGMGTSLRAGLEAMHGTGVRAALVSLVDQPGIGPAAVARVRAAYTSPSTLASAAYDGVRGHPVLFGAAHWAAVAASATGDRGARAYLKAHESAITLVECGDVAEAYDIDTVADLVHLELEHHHHHH | not soluble |
| MKKAYLVWGMAALLSLGVAQQAGGLTLEGVEALRQEARKAYPVGFVDLAPWKRALEAAEALAKQNPNDLRALRLLAEIYTETQWAIRAWEAWMNYREKGGTWDEAARQAAAKVARTLAFYANQRGDRAEAERWAAQAQAVEAGQ | soluble |
| MNRREVRCAFSASKAARAQLLLRGKVRLEPLPTRPRTVLGLDASYSAKDGVGVGAAVLISLETLEPVDCRVYISRVCIPYIPGLLAFRELAVMAPAAAALSAEADVVMVDGHGIAHPRRFGIASHVGVILERPSIGVAKKKLVGTLVEGPGGMYVVQDGERLAIVLGTRPREVYVSPGHRITLEEAASIARATIRPGGWMPEPTRLADVISKALKTIIGGQSLINSALASLCRVKLGPRLEELERPLRRAGLEVELEHHHHHH | not soluble |
| KPAAHLIGDPSKQNSLLWRANTDRAFLQDGFSLSNNSLLVPTSGIYFVYSQVVFSGKAYSPKATSSPLYLAHEVQLFSSQYPFHVPLLSSQKMVYPGLQEPWLHSMYHGAAFQLTQGDQLSTHTDGIPHLVLSPSTVFFGAFAL | soluble |
| MKPSWDIFCSVVDNYGDAGVTWRLARQLVAEHDVQVRLWIDDLAAFVRLCPDADPCASQQLREGVSVCRWPADWVSSTVPDVVIEAFACRLPTSYTESMLQRSPRPLWLNLEYLSAEDWVSGCHGLPSPQMNGLKKFFFFPGFADTTGGLLRERNLIGQRQAFQQDKALQQAFLQELNVEPLAGARLISVFAYETPRLDSWLDALASDSRPTHLLVPEGRILADVQRWLGSEGQLHAGTVQASGALTVQVLPFIRQERYDQLLWSCDFNVVRGEDSFVRAQWAGRPMLWHIYQQEEDAHLPKLDAFLALYL | not soluble |
| MGSDKIHHHHHHMNYPFIYPGAIHMHTTYSDGSATFPHLIAAAREAGLRWVIVTDHDTLEGLPFAGWHDDVLVIVGHEITPDHNHFLALNVDTVISNELPPQQFIDEVYQRGGFGIIAHPDERVRNSFKDIYRWDDWTIDGPSQRTGRVVGLELWNFMSDWGEHLTERNKLALVLYPQLGLSGPTLATLAWWDRLNMVGRRTFGIGGVDAHGFKRKAPWGEIEVFPYPWIFRTLTNYLLLPEPLSSDATTATNQVYAALTAGRCYFVNRLDGDAPSIIFRLSRPGDLAEIGDTISLAGGPLLVEVDVGADAYARLIVNGEVMTSGIRRIRQTVTDDGVYRVEAYWGGKPWLFTNPIFVTAADAGREGSL | not soluble |
| MAHHHHHHMKKSINILVCNNYLIHDFLSFFKNSDIDVGTKMDFIQKKASQVRIILLNGNEIMPGINVNYLEQIKEVFINAKIYVRYVVQEVGTVSIMELGQLEQDNIPYERKLAGYVLPNVHVKIDSKTNVMKIKSDNVFSQYYNNGKLTSQAFDQGGFFKTKYVASLAENALLKIEGIHNDMENIPDEYYLYFKQRRDKMEKHPPGYLKRVPLQGQIWGNFHANRRNWKRKF | not soluble |
| MCMAQRLNVNPTRMELSKLKKRLATATRGHKLLKDKQDELMRQFINLIKYNNQLRDEVEKELGSSLKDFVMARAVMSSEFLEEAIAYPKEEIEVEVGNKNIMSVNVPIMNFKRKLEGDEGSIYPYGFMNTSAELDDAISKLYGILPKLLELAEVEKSGQLMADEIEKTRRRVNALEYMTIPQLKETIRYIRMKLDENERSALTRLMKVKSMIEQRGLEHHHHHH | not soluble |
| MGSDKIHHHHHHMVKLYKEIINLIDNHQATMVEQLHQFCEINSGTTNLTGLAIMAETLCSAFKPIADTTELITLPPLSVIDMTGNTVMQSCGDVLFISKRPHLKRRILLSGHMDTVYSASNPFQKLSYLDANQINGPGVADMKGGLIVILHALAAFENTRFAEDMGWDVLINSDEEIGSPTSGSLFNKLAHRYQAALVYEPAMTPNGTLAKNRKGSGKLTLVATGRAAHAGRAFDEGRNAICYLAEAITAVHALNGQKNGVTINVGKIAGGEALNVVPDKAVAQLDIRISLPEDEIWVRNELNKIIKQLERPDYSLNVHGTFGRPVKRICAGTERLFHRIQKIGEALGLTIDWKDSGGCCDGNNLAHYGLPVLDTLGVRGGNIHSSDEYILLDSLSERAALSALLLIDLAQGGLEDLIK | not soluble |
